Assay results reported in the supplement of paper PMC7877785.
± gives the uncertainty stated by the source.

Assay: self-splicing fitness, log relative to wild type (ln ratio); higher = more splicing; Tetrahymena group I intron in knt gene, E. coli kanamycin selection, DiMSum; sequences stand for … in CUCUCU…GGAGGGAAAAGUUAUCAGGCAUGCACCUGGUAGCUAGUCUUUAAACCAAUAGAUUGCAUCGGUUUAAAAGGCAAGACCGUCAAAUUGCGGGAAAGGGGUCAACAGCCGUUCAGUACCAAGUCUCAGGGGAAACUUUGAGAUGGCCUUGCAAAGGGUAUGGUAAUAAGCUGACGGACAUGGUCCUAACCACGCAGCCAAGUCCUAAGUCAACAGAUCUUCUGUUGAUAUGGAUGCAGUUCACAGACUAAAUGUCGGUCGGGGAAGAUGUAUUCUUCUCAUAAGAUAUAGUCGGACCUCUCCUUAAUGGGAGCUAGCGGAUGAAGUGAUGCAACACUGGAGCCGCUGGGAACUAAUUUGUAUGCGAAAGUAUAUUGAUUAGUUUUGGAGUACUCGUGGUCG
Method in brief: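 Colonies from six replicate transformations of E. coli BL21(DE3) were pooled and amplicon-sequenced on an Illumina HiSeq 2500. The library placed an intron with all eight P1ex-region nucleotides randomised inside the knt kanamycin-resistance gene on pET-22b(+), and cells grew overnight at 37°C or 30°C on LB agar with or without 25 μg/mL kanamycin (plus 100 μg/mL carbenicillin, 50 μM IPTG, 0.2% rhamnose). Fitness is the DiMSum error-weighted combination of wild-type-normalised replicate fold changes, kanamycin versus none.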

Row | Sequence | self-splicing fitness (ln) (30 °C) | self-splicing fitness (ln) (37 °C)
1 | GGAGAGCAAUAUUACGGGCU | -2.73 ± 0.27 | 
2 | GGAGAGCAAUAUUACGGUCA | -1.14 ± 0.2 | -2.11 ± 0.36
3 | GGAGAGCAAUAUUACGGUGG | -3.5 ± 0.28 | -2.25 ± 0.23
4 | GGAGAGCAAUAUUACGUCCG | -1.5 ± 0.1 | -0.937 ± 0.13
5 | GGAGAGCAAUAUUACGUGGG | -3.07 ± 0.44 | -2.28 ± 0.33
6 | GGAGAGCAAUAUUACGUUCC |  | -2 ± 0.28
7 | GGAUAGCAAUAUUACGAACU | -0.708 ± 0.15 | -0.573 ± 0.19
8 | GGAUAGCAAUAUUACGAAGC | -2.6 ± 0.48 | 
9 | GGAUAGCAAUAUUACGACAA | -0.923 ± 0.12 | -0.865 ± 0.14
10 | GGAUAGCAAUAUUACGACUG | -0.737 ± 0.15 | -1.08 ± 0.19
11 | GGAUAGCAAUAUUACGAGCA | -1.26 ± 0.26 | -1.05 ± 0.14
12 | GGAUAGCAAUAUUACGAGGA | -3.28 ± 0.25 | -1.15 ± 0.17
13 | GGAUAGCAAUAUUACGAGUU | -1.59 ± 0.1 | -1.64 ± 0.14
14 | GGAUAGCAAUAUUACGAUUG | -1.55 ± 0.15 | -1.44 ± 0.24
15 | GGAUAGCAAUAUUACGAUUU | 0.317 ± 0.072 | 0.459 ± 0.09
16 | GGAUAGCAAUAUUACGCCCA | -1.36 ± 0.49 | -1.39 ± 0.33
17 | GGAUAGCAAUAUUACGCCCU | -2.08 ± 0.14 | -2.27 ± 0.17
18 | GGAUAGCAAUAUUACGCGUA | -0.646 ± 0.21 | -2.02 ± 0.18
19 | GGAUAGCAAUAUUACGCUUG | -1.81 ± 0.12 | -1.11 ± 0.16
20 | GGAUAGCAAUAUUACGGAUA |  | -1.56 ± 0.26
21 | GGAUAGCAAUAUUACGGCCA | -0.925 ± 0.19 | -0.211 ± 0.18

Row | Sequence | self-splicing fitness (ln) (30 °C) | self-splicing fitness (ln) (37 °C)
22 | GGAUAGCAAUAUUACGUACU | -0.979 ± 0.096 | 0.0901 ± 0.14
23 | GGAUAGCAAUAUUACGUAUA | -2.53 ± 0.2 | -0.564 ± 0.15
24 | GGAUAGCAAUAUUACGUCAA | -1.09 ± 0.19 | 0.00829 ± 0.15
25 | GGAUAGCAAUAUUACGUGGA | -3.31 ± 0.21 | -2.47 ± 0.21
26 | GGAUAGCAAUAUUACGUGGG |  | -0.24 ± 0.16
27 | GGAUAGCAAUAUUACGUGUA | -2.33 ± 0.13 | -2.18 ± 0.12
28 | GGAUAGCAAUAUUACGUGUC | -3.16 ± 0.28 | 
29 | GGAUAGCAAUAUUACGUGUU | -3.31 ± 0.17 | -1.63 ± 0.14
30 | GGCAAGCAAUAUUACGACGC | -0.177 ± 0.14 | -0.105 ± 0.17
31 | GGCAAGCAAUAUUACGACGG | -2.85 ± 0.16 | -2.72 ± 0.2
32 | GGCAAGCAAUAUUACGAUGG | -2.61 ± 0.19 | -1.52 ± 0.16
33 | GGCAAGCAAUAUUACGCCGA | -2.14 ± 0.32 | -0.337 ± 0.25
34 | GGCAAGCAAUAUUACGCCUC | -2.03 ± 0.13 | -1.34 ± 0.12
35 | GGCAAGCAAUAUUACGCCUU | -2.83 ± 0.22 | -0.231 ± 0.16
36 | GGCAAGCAAUAUUACGGGGU | -2.5 ± 0.099 | -0.776 ± 0.094
37 | GGCAAGCAAUAUUACGGUCA | -0.571 ± 0.09 | 0.329 ± 0.096
38 | GGCAAGCAAUAUUACGGUUU | -0.376 ± 0.052 | 0.232 ± 0.069
39 | GGCAAGCAAUAUUACGUACC | -1.35 ± 0.065 | -0.299 ± 0.083
40 | GGCAAGCAAUAUUACGUCAC | -3.31 ± 0.22 | -0.36 ± 0.17
41 | GGCAAGCAAUAUUACGUCCU | -1.39 ± 0.088 | -1.54 ± 0.11
42 | GGCAAGCAAUAUUACGUCGC | -2.66 ± 0.14 | -1.38 ± 0.13

Row | Sequence | self-splicing fitness (ln) (30 °C) | self-splicing fitness (ln) (37 °C)
43 | GGCAAGCAAUAUUACGUCGG | -3.42 ± 0.2 | -2.47 ± 0.32
44 | GGCAAGCAAUAUUACGUUGA | -0.666 ± 0.066 | -0.307 ± 0.092
45 | GGCCAGCAAUAUUACGACAG | -4.12 ± 0.25 | -3.08 ± 0.35
46 | GGCCAGCAAUAUUACGACCG | -1.21 ± 0.11 | -0.323 ± 0.14
47 | GGCCAGCAAUAUUACGAGCC | -2.63 ± 0.26 | -2.72 ± 0.29
48 | GGCCAGCAAUAUUACGAUCC | -0.826 ± 0.11 | 0.0889 ± 0.14
49 | GGCCAGCAAUAUUACGAUCU | -0.383 ± 0.06 | -0.133 ± 0.078
50 | GGCCAGCAAUAUUACGCAGG |  | -2.78 ± 0.22
51 | GGCCAGCAAUAUUACGCGCG | -0.959 ± 0.089 | -0.284 ± 0.12
52 | GGCCAGCAAUAUUACGCUAG | -3.21 ± 0.21 | -2.47 ± 0.3
53 | GGCCAGCAAUAUUACGCUCA | -0.637 ± 0.13 | -0.183 ± 0.13
54 | GGCCAGCAAUAUUACGCUCG | -2.5 ± 0.15 | -0.863 ± 0.13
55 | GGCCAGCAAUAUUACGCUUC | -1.98 ± 0.15 | -0.344 ± 0.11
56 | GGCCAGCAAUAUUACGGAGG | -2.39 ± 0.11 | -1.14 ± 0.14
57 | GGCCAGCAAUAUUACGGAUC | -0.753 ± 0.092 | -0.347 ± 0.11
58 | GGCCAGCAAUAUUACGGUCC | -3.11 ± 0.21 | -2.45 ± 0.37
59 | GGCCAGCAAUAUUACGUAGA | -1.59 ± 0.12 | -1.04 ± 0.15
60 | GGCCAGCAAUAUUACGUCCG | -3.34 ± 0.21 | -0.963 ± 0.14
61 | GGCCAGCAAUAUUACGUCUA | -2.43 ± 0.084 | -1.29 ± 0.078
62 | GGCCAGCAAUAUUACGUCUU | -0.247 ± 0.081 | -0.523 ± 0.082
